Experimental data published in the supplement of paper PMC10567573.

B1: WDR41 (parent)
chain: WTMQAYERNFWDPSPQLDTQQEIK
B2: SNX3 (parent)
chain: FLRQLPFRGDDGIFDDNFIEERKQ

Variants of: B1
Assay: protein stability index of a GFP-peptide fusion (GPS, HEK-293T) (PSI 1-6); higher = more stable
Details: c terminus: a fixed tail appended
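Also: lentivirally expressed fusions sorted by FACS into six bins by GFP to DsRed ratio, PSI derived from sequencing read proportions per bin multiplied by bin number.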

Protein stability index: each site, then its substitutions
Q20: T 2.04; S 2.07; I 2.07; L 2.19; M 2.27; C 2.75; P 2.06; V 2.34; E 2.35; G 2.19; N 2.88; R 2.44; F 1.99; A 1.64; H 2.86; Y 2.07; D 3.42; K 2.28
D18: Y 1.97; W 1.83
E22: F 2.11; G 2.34; T 2.33; L 2.07; S 2.96; K 2.37; N 2.41; W 1.88; M 2.03; A 2.45; H 1.8; C 2.55; Q 2.1; P 2.34; V 2.36; R 2.15; I 2.81; D 1.85; Y 2.17
K24: Q 2.44; E 3.06; L 1.76; C 2.19; W 1.46; H 2.29; S 2.59; R 2.58; P 2.09; M 1.91; N 2.31; G 2.29; F 2.01; A 2.47; T 2.63; I 1.98; V 2.17; D 2.83; Y 2.46
I23: C 2.11; H 2.75; M 2.18; T 2.83; L 2.91; R 2.91; V 2.02; Y 2.32; W 2.12; E 3.26; G 3.05; S 3.27; Q 3.15; D 3.61; N 3.24; P 2.97; F 2.43; A 2.99; K 3.93
Q21: W 1.6; A 2.39; H 1.99; F 1.93; Y 2.61; R 2.84; L 1.92; C 2.12; N 2.71; P 2.66; D 2.1; K 2.28; M 2.93; G 2.62; V 2.51; S 3.13; E 2.56; T 2.5; I 1.73
T19: S 2.91; W 2.22; N 2.96; K 2.69; C 2.19; P 2.21; H 2.74; A 2.73; V 2.35; I 2; M 2.35; F 1.55; D 2.19; Y 1.62; L 2.5; R 2.05; Q 2.55; E 2.37

Variants of: B2
Assay: as above
Details: c terminus: a fixed tail appended

Protein stability index of substitutions, site by site:
D16: L 2.91; F 2.56; C 3.05; M 2.95; V 3.45; T 3.06; P 3.4; N 2.88; R 3.23; I 3.19
R22: Q 3.27; K 3.81; T 3.77; N 3.78; F 3.44; P 3; A 3.56; E 3.73; G 3.66; V 3.12; Y 2.31; L 2.87; C 2.85
D11: C 2.91; N 3.01; G 4.22; K 3; W 1.94; R 2.46; S 4.12; H 3.15; M 3.05; P 4.1; F 2.74
D10: S 3.35; E 3.33; Y 1.9; I 2.03; C 3.52; M 3.41; Q 3.56; T 3.2; A 3.12; G 2.76
Q24: T 2.84; Y 2.93; P 2.6; I 3.02; G 3.29; K 4.36; R 3.48; L 2.79; S 2.75; H 2.91; C 2.57; N 4.03; A 3.3
K23: V 2.49; I 2.47; M 3.26; Y 2.99; S 3.16; L 2.49; A 3.45; Q 3.21; D 4.48
F14: T 3.86; A 4.26; S 3.87; H 4.32; K 4.23; D 4.79; C 3.06
G12: C 3.03; V 3.07; R 3.1; Y 2.91; A 3.79; H 3.77; L 3.01; E 3.64; T 3.66; D 3.67; W 2.67
D15: A 3.45; W 2.89; F 2.74; I 2.53; E 3.18; M 3.28; G 3.12; L 3.28; Q 2.97; H 3.06; Y 2.43
P6: E 2.91; Y 2.9; M 1.74; G 3.45; D 3.31; K 2.88; H 3.1
F1: H 5.32; D 4.7; S 4.72; P 4.99
Q4: E 3.85; G 4.33; V 3.07; D 4.26; I 2.55; H 2.94; W 2.7; K 2.67
G9: F 3.36; L 2.99; S 3.41; Y 2.53; T 2.97; W 3.02; I 2.9; D 3.04; E 3.17
L5: V 4.15; T 3.77; R 3.99; Y 2.78; G 3.74; Q 3.72; M 3.39; S 4.01; D 3.71
N17: V 2.97; M 2.79; Y 2.38; I 2.7; H 3.41; A 2.54; Q 3.71; W 1.94; T 3.22; L 2.28
E21: M 2.81; W 2.1; G 2.49; N 3.01; C 2.85; P 2.62; L 3.34; S 2.83; I 2.96; D 4.12
E20: N 2.92; M 2.79; K 3.74; Q 2.74; S 2.93; D 3.35; T 2.24; V 2.49; F 2.88; C 3.23
F7: I 2.83; V 3.83; W 3.05; Q 3.59; C 3.16; E 4.77; M 3.32; Y 3.07; N 3.87
L2: G 4.59; Y 4.46; K 2.81; M 4.01; F 3.16; E 4.87
I19: D 3.98; G 3.87; V 3.73; Q 4.12; S 3.67; T 3.86; P 4.04; W 3.6; H 2.92
R3: A 3.28; K 3.43; N 3.48; W 1.83; L 1.94; T 3.17; Q 3.62; I 2.42; F 1.97; P 4.09
F18: N 4.16; Y 3.27; E 4.47; M 3.79; I 3.08; P 3.62; Q 3.94; R 3.9
I13: M 3.03; D 4.24; V 3.3; A 4.22; H 3.67; G 3.52; N 3.28; Q 4.03
R8: S 3.61; P 3.75; H 3.96; A 3.15; F 2.44; V 3.56; Y 3.96; W 3.08
